Where two headings read alike, the source gives them in different places. Values belong to the binder of their own block, whether it stands above or below them.
Legend:
[1] = target: the molecule itself; test: negative stain electron microscopy
[2] = target: microtubules (MTs), individual (UniProt P68363); test: single-molecule TIRF microscopy
[3] = target: microtubules (MTs), individual (UniProt P68363); test: single-molecule TIRF microscopy; remark: listed apart in the source
[4] = target: microtubules (MTs), individual (UniProt P68363); test: single-molecule TIRF microscopy; remark: listed apart in the source
[5] = target: the molecule itself; test: single-molecule photobleaching steps
SEC = target: the molecule itself; test: SEC

Sequence of microtubules (MTs), individual (P68363 whole entry, chain 1 of 2): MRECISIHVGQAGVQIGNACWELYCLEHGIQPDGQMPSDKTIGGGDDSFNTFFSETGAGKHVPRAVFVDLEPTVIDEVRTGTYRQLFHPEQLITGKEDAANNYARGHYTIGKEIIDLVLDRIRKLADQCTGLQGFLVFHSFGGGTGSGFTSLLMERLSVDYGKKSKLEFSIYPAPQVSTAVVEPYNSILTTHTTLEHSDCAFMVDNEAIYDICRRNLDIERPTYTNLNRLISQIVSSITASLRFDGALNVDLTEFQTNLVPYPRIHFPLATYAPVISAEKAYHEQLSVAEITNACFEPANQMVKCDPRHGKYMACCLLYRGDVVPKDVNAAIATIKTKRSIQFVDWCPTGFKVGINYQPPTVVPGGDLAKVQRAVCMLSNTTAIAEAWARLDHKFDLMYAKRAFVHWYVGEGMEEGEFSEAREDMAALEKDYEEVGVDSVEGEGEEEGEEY
Sequence of microtubules (MTs), individual (P07437 whole entry, chain 2 of 2, further chain): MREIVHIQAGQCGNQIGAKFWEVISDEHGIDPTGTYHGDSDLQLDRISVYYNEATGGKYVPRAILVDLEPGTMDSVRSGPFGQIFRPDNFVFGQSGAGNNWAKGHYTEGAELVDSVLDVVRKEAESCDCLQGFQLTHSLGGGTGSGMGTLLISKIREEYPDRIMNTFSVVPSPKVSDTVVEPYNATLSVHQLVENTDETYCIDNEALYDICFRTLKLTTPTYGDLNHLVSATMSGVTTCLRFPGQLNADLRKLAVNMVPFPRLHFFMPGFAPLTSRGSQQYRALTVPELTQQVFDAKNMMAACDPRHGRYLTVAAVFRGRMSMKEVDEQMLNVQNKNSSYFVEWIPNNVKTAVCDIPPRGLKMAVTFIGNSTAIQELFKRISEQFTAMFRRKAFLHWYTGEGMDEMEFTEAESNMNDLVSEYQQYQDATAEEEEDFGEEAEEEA

B1: GFP-HSET (kinesin-14 HSET) (natural protein, UniProt Q9BW19 1-673, looked up)
chain: MDPQRSPLLEVKGNIELKRPLIKAPSQLPLSGSRLKRRPDQMEDGLEPEKKRTRGLGATTKITTSHPRVPSLTTVPQTQGQTTAQKVSKKTGPRCSTAIATGLKNQKPVPAVPVQKSGTSGVPPMAGGKKPSKRPAWDLKGQLCDLNAELKRCRERTQTLDQENQQLQDQLRDAQQQVKALGTERTTLEGHLAKVQAQAEQGQQELKNLRACVLELEERLSTQEGLVQELQKKQVELQEERRGLMSQLEEKERRLQTSEAALSSSQAEVASLRQETVAQAALLTEREERLHGLEMERRRLHNQLQELKGNIRVFCRVRPVLPGEPTPPPGLLLFPSGPGGPSDPPTRLSLSRSDERRGTLSGAPAPPTRHDFSFDRVFPPGSGQDEVFEEIAMLVQSALDGYPVCIFAYGQTGSGKTFTMEGGPGGDPQLEGLIPRALRHLFSVAQELSGQGWTYSFVASYVEIYNETVRDLLATGTRKGQGGECEIRRAGPGSEELTVTNARYVPVSCEKEVDALLHLARQNRAVARTAQNERSSRSHSVFQLQISGEHSSRGLQCGAPLSLVDLAGSERLDPGLALGPGERERLRETQAINSSLSTLGLVIMALSNKESHVPYRNSKLTYLLQNSLGGSAKMLMFVNISPLEENVSESLNSLRFASKVNQCVIGTAQANRK
stoichiometry N [1]: 2

dwell time [2]: 12.2 s
dwell time [3]: 1.9 s
dwell time [4]: 4 s
B2: GFP-Kif15-FL (full-length Kif15, Kinesin-12) (natural protein, UniProt Q9NS87 1-1388, looked up)
chain: MAPGCKTELRSVTNGQSNQPSNEGDAIKVFVRIRPPAERSGSADGEQNLCLSVLSSTSLRLHSNPEPKTFTFDHVADVDTTQESVFATVAKSIVESCMSGYNGTIFAYGQTGSGKTFTMMGPSESDNFSHNLRGVIPRSFEYLFSLIDREKEKAGAGKSFLCKCSFIEIYNEQIYDLLDSASAGLYLREHIKKGVFVVGAVEQVVTSAAEAYQVLSGGWRNRRVASTSMNRESSRSHAVFTITIESMEKSNEIVNIRTSLLNLVDLAGSERQKDTHAEGMRLKEAGNINRSLSCLGQVITALVDVGNGKQRHVCYRDSKLTFLLRDSLGGNAKTAIIANVHPGSRCFGETLSTLNFAQRAKLIKNKAVVNEDTQGNVSQLQAEVKRLKEQLAELASGQTPPESFLTRDKKKTNYMEYFQEAMLFFKKSEQEKKSLIEKVTQLEDLTLKKEKFIQSNKMIVKFREDQIIRLEKLHKESRGGFLPEEQDRLLSELRNEIQTLREQIEHHPRVAKYAMENHSLREENRRLRLLEPVKRAQEMDAQTIAKLEKAFSEISGMEKSDKNQQGFSPKAQKEPCLFANTEKLKAQLLQIQTELNNSKQEYEEFKELTRKRQLELESELQSLQKANLNLENLLEATKACKRQEVSQLNKIHAETLKIITTPTKAYQLHSRPVPKLSPEMGSFGSLYTQNSSILDNDILNEPVPPEMNEQAFEAISEELRTVQEQMSALQAKLDEEEHKNLKLQQHVDKLEHHSTQMQELFSSERIDWTKQQEELLSQLNVLEKQLQETQTKNDFLKSEVHDLRVVLHSADKELSSVKLEYSSFKTNQEKEFNKLSERHMHVQLQLDNLRLENEKLLESKACLQDSYDNLQEIMKFEIDQLSRNLQNFKKENETLKSDLNNLMELLEAEKERNNKLSLQFEEDKENSSKEILKVLEAVRQEKQKETAKCEQQMAKVQKLEESLLATEKVISSLEKSRDSDKKVVADLMNQIQELRTSVCEKTETIDTLKQELKDINCKYNSALVDREESRVLIKKQEVDILDLKETLRLRILSEDIERDMLCEDLAHATEQLNMLTEASKKHSGLLQSAQEELTKKEALIQELQHKLNQKKEEVEQKKNEYNFKMRQLEHVMDSAAEDPQSPKTPPHFQTHLAKLLETQEQEIEDGRASKTSLEHLVTKLNEDREVKNAEILRMKEQLREMENLRLESQQLIEKNWLLQGQLDDIKRQKENSDQNHPDNQQLKNEQEESIKERLAKSKIVEEMLKMKADLEEVQSALYNKEMECLRMTDEVERTQTLESKAFQEKEQLRSKLEEMYEERERTSQEMEMLRKQVECLAEENGKLVGHQNLHQKIQYVVRLKKENVRLAEETEKLRAENVFLKEKKRSES
stoichiometry N [5]: 2

B3: Kif15-N700 (C-terminally truncated Kif15) (domain or fragment, UniProt Q9NS87 1-700, looked up)
chain: MAPGCKTELRSVTNGQSNQPSNEGDAIKVFVRIRPPAERSGSADGEQNLCLSVLSSTSLRLHSNPEPKTFTFDHVADVDTTQESVFATVAKSIVESCMSGYNGTIFAYGQTGSGKTFTMMGPSESDNFSHNLRGVIPRSFEYLFSLIDREKEKAGAGKSFLCKCSFIEIYNEQIYDLLDSASAGLYLREHIKKGVFVVGAVEQVVTSAAEAYQVLSGGWRNRRVASTSMNRESSRSHAVFTITIESMEKSNEIVNIRTSLLNLVDLAGSERQKDTHAEGMRLKEAGNINRSLSCLGQVITALVDVGNGKQRHVCYRDSKLTFLLRDSLGGNAKTAIIANVHPGSRCFGETLSTLNFAQRAKLIKNKAVVNEDTQGNVSQLQAEVKRLKEQLAELASGQTPPESFLTRDKKKTNYMEYFQEAMLFFKKSEQEKKSLIEKVTQLEDLTLKKEKFIQSNKMIVKFREDQIIRLEKLHKESRGGFLPEEQDRLLSELRNEIQTLREQIEHHPRVAKYAMENHSLREENRRLRLLEPVKRAQEMDAQTIAKLEKAFSEISGMEKSDKNQQGFSPKAQKEPCLFANTEKLKAQLLQIQTELNNSKQEYEEFKELTRKRQLELESELQSLQKANLNLENLLEATKACKRQEVSQLNKIHAETLKIITTPTKAYQLHSRPVPKLSPEMGSFGSLYTQNSSILDNDILN
stoichiometry N (SEC): 2

— paper PMC4207087 (Current biology : CB, 2014)
